The record followed here is patent US20210155689A1 (SHANGHAI PHARMAEXPLORER, published 2021).

The Kd is the equilibrium constant for the complex coming apart. A word on the koff: it is a measure of how fast the partners let go of each other. A word on the kon: it is the second-order rate constant of association.

For assay [1], the target named is T1, human LAG-3 on cells (HEK293-hLAG-3 stable cell line) (human, UniProt P18627 23-525).
T1 sequence: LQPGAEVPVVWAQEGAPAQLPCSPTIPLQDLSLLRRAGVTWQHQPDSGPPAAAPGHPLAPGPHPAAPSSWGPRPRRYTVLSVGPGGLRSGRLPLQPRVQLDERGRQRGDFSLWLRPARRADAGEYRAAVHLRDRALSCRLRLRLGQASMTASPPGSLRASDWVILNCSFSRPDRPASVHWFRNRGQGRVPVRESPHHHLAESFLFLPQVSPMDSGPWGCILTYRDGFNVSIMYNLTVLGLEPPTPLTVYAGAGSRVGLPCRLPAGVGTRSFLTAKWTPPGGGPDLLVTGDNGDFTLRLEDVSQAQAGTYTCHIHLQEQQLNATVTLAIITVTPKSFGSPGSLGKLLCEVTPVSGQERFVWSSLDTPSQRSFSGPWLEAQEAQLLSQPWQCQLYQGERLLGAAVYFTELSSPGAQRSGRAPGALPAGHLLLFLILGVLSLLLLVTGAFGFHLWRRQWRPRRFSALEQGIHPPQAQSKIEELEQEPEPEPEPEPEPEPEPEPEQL
The assay is described as follows: FACS, HEK293-hLAG-3, antibody 8 nM. (In flow cytometry, cells or beads pass a laser one at a time.)

The target of assay [2] is T1, human LAG-3 on cells (HEK293-hLAG-3 …). The assay is described as follows: FACS, HEK293-hLAG-3, antibody 40 nM.
For assay [3] the target is unchanged. As to the kind of experiment: FACS, HEK293-hLAG-3, antibody 0.064 nM.
Assay [4] shares this target. The assay is described as follows: FACS, HEK293-hLAG-3, antibody 0 nM.
Assay [5] has the same target. As to the kind of experiment: FACS, HEK293-hLAG-3, antibody 0.013 nM.
The target is the same in assay [6]. The assay is described as follows: FACS, HEK293-hLAG-3, antibody 1.6 nM.
Assay [7] shares this target. The assay is described as follows: FACS, HEK293-hLAG-3, antibody 0.32 nM.
Assay [8] addresses T2, human LAG-3 ECD (antigen protein of the affinity test) (human, UniProt P18627 23-450).
T2 sequence: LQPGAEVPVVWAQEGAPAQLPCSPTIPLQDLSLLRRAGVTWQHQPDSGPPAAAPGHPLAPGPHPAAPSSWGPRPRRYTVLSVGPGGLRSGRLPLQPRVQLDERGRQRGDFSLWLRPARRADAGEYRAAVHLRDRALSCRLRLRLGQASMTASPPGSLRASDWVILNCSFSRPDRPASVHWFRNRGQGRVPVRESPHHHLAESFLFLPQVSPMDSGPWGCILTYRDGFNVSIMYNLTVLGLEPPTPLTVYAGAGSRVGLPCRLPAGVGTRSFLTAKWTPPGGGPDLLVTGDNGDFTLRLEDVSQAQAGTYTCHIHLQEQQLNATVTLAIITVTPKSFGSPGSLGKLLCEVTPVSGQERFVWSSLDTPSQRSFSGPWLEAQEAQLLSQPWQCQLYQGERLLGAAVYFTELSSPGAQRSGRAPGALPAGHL
The assay is described as follows: SPR, CM5 chip, antibody captured by anti-human Fc IgG, antigen in flow, 1:1 fit. The method, then: First, anti-human Fc IgG was immobilized on the surface of the CM5 chip to 6000-10000 RU by amino coupling method, with FC1 as the reference channel. The coupling process was as follows: a freshly prepared 1:1 mixture of 50 mM NHS and 200 mM EDC was activated for 7 minutes, then injected with 10-50 ug/ml anti-human Fc IgG diluted in 10 mM sodium acetate ph5.0 buffer. The remaining activated sites were blocked with 1M ethanolamine. Then, HBS-EP+ buffer was used to dilute the antibody to be tested to 5 ug/ml (adjustable according to the capture level) and the antibodies were captured on the chip at a flow rate of 10 ul/min to obtain a response value of about 100˜300 RU. Then the antigen protein was diluted to 100 nM (the highest concentration was tentatively 100 nM), and flew through the chip surface at a flow rate of 30 ul/min. If enough signal value was obtained, the antigen-protein was diluted by several concentration gradients, and flew through the chip surface respectively. At the end of each cycle, the chip surface was regenerated with 10 mM Glycine at pH 1.5. The kinetic rate constant needed to be subtracted from the blank control, and the data was fitted with the global fit analysis method 1:1 combination model. The dissociation equilibrium rate constant (KD) was calculated according to the following formula: KD=kd/ka.

Residue numbers refer to the chain shown, from its start.

B1: 556F6B8-6 humanized antibody (antibody, V domains shown)
VH: QVQLQESGPGLVKPSETLSLTCTVSGFSIIKYGVHWIRQPPGKGLEWIGVIWRGGITDYNAAFMSRVTISVDTSKNQFSLKLSSVTAADTAVYYCARWDGPLAMDYWGQGTTVTVSS
VL: DIVLTQSPSFLSASVGDRVTITCKASQDVGTTVAWYQQKPGKAPKLLIYWASTRHTGVPSRFSGSGSGTEFTLTISSLQPEDFATYYCQQYSSYPYTFGQGTKLEIK
Take B1: the Mean fluorescence intensity in assay [1] was 39; in assay [2], 50; in assay [3], 6; in assay [4], 4; in assay [5], 4; in assay [6], 23. In addition, the Mean fluorescence intensity in assay [7] is 10.

B2: 556F6B8-3 humanized antibody (antibody, V domains shown)
VH: B1 VH with I29L, V71K, N76S, F78V
VL: B1 VL with V3Q
Consider B2, for which the Mean fluorescence intensity in assay [1] came out at 94; in assay [2], 98; in assay [3], 21; in assay [4] it was 4; in assay [5] it was 10; in assay [6], 83. In assay [7], this molecule displayed a Mean fluorescence intensity of 49. The Kd in assay [8] turned out to be 3.31 nM. Moreover, the koff in assay [8] turned out to be 0.000465 s⁻¹. Moreover, in assay [8], the kon is 141000 M⁻¹ s⁻¹.

B3: 556F6B8-1 humanized antibody (antibody, V domains shown)
VH: B1 VH with F27G, I30S
VL: B1 VL with V3Q
For the molecule B3, the Mean fluorescence intensity in assay [1] is 19; in assay [2], 33; in assay [3], 4; in assay [4] it was 4; in assay [5], 4; in assay [6] it was 9. This molecule also returned a Mean fluorescence intensity in assay [7] of 5.

B4: 556F6B8-9 humanized antibody (antibody, V domains shown)
VH: B1 VH with F27G, I30S
VL: B1 VL with A43S
As for B4, the Mean fluorescence intensity in assay [1] was 18; in assay [2], 33; in assay [3] it was 4; in assay [4], 4; in assay [5], 4; in assay [6], 9. In assay [7], this molecule came in with a Mean fluorescence intensity of 5.

B5: 556F6B8-11 humanized antibody (antibody, V domains shown)
VH: B1 VH with I29L, V71K, N76S, F78V
VL: B1 VL with A43S
Turning to B5, the Mean fluorescence intensity in assay [1] worked out at 97; in assay [2] it was 100; in assay [3], 20; in assay [4], 4; in assay [5] it was 9; in assay [6] it was 87. The Mean fluorescence intensity in assay [7] came out at 51.

B6: 556F6B8-7 humanized antibody (antibody, V domains shown)
VH: B1 VH with I29L, V71K, N76S, F78V
VL: B1 VL
B6: the Mean fluorescence intensity in assay [1] is 93; in assay [2], 98; in assay [3], 18; in assay [4], 4; in assay [5], 8; in assay [6], 79. Further, the Mean fluorescence intensity in assay [7] was found to be 44. Also, the Kd in assay [8] came out at 3.25 nM. In assay [8], the koff was determined as 0.000453 s⁻¹. Moreover, in assay [8], the kon was found to be 139000 M⁻¹ s⁻¹.

B7: 556F6B8-8 humanized antibody (antibody, V domains shown)
VH: B1 VH with Q1R, I29L, V71K, N76S, F78V, R97K
VL: B1 VL
In the case of B7, the Mean fluorescence intensity in assay [1] is 79; in assay [2] it was 83; in assay [3], 15; in assay [4], 4; in assay [5], 8; in assay [6], 64. Further, the Mean fluorescence intensity in assay [7] is 36.

B8: 556F6B8-4 humanized antibody (antibody, V domains shown)
VH: B1 VH with Q1R, I29L, V71K, N76S, F78V, R97K
VL: B1 VL with V3Q
Regarding B8, the Mean fluorescence intensity was found to be 77 in assay [1]; 82 in assay [2]; 14 in assay [3]; 4 in assay [4]; 7 in assay [5]; 62 in assay [6]. Also, the Mean fluorescence intensity in assay [7] was 32.

B9: 556F6B8-12 humanized antibody (antibody, V domains shown)
VH: B1 VH with Q1R, I29L, V71K, N76S, F78V, R97K
VL: B1 VL with A43S
Take B9: the Mean fluorescence intensity was 83 in assay [1]; 87 in assay [2]; 15 in assay [3]; 4 in assay [4]; 8 in assay [5]; 70 in assay [6]. In assay [7], this molecule returned a Mean fluorescence intensity of 36.

B10: 556F6B8-10 humanized antibody (antibody, V domains shown)
VH: B1 VH
VL: B1 VL with A43S
For B10, the Mean fluorescence intensity came to 44 in assay [1]; 54 in assay [2]; 6 in assay [3]; 4 in assay [4]; 4 in assay [5]; 27 in assay [6]. In assay [7], this molecule gave a Mean fluorescence intensity of 11.

B11: 556F6B8-5 humanized antibody (antibody, V domains shown)
VH: B1 VH with F27G, I30S
VL: B1 VL
For the molecule B11, the Mean fluorescence intensity in assay [1] was 16; in assay [2], 32; in assay [3], 4; in assay [4], 4; in assay [5], 4; in assay [6], 8. Besides, the Mean fluorescence intensity in assay [7] turned out to be 5.

B12: 556F6B8-2 humanized antibody (antibody, V domains shown)
VH: B1 VH
VL: B1 VL with V3Q
B12: the Mean fluorescence intensity in assay [1] was 37; in assay [2], 49; in assay [3], 5; in assay [4], 4; in assay [5], 4; in assay [6], 23. In assay [7], the Mean fluorescence intensity was 10.
